Data published in article PMC3538150 (Cell reports, 2012).
Where no end group is shown, it is not given here.

T1: LigIV-DBD D18H (human, UniProt P49917 1-240, D18H)
T1 sequence (looked up): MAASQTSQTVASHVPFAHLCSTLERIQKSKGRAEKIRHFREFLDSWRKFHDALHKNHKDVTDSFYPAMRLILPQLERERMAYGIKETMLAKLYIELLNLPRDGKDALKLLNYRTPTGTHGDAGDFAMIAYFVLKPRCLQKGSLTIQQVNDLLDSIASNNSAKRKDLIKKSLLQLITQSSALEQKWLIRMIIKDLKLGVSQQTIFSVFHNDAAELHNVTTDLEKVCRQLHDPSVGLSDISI

T2: LigIV-DBD V14A (human, UniProt P49917 1-240, V14A)
T2 sequence (looked up): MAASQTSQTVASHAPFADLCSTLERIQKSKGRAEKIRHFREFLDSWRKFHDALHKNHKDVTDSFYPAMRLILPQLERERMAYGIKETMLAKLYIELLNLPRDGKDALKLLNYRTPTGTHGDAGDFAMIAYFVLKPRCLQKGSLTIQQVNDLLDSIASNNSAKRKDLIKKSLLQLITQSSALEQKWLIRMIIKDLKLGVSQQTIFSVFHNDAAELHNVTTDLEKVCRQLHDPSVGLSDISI

T3: DNA ligase IV DNA binding domain (LigIV-DBD; residues 1-240), wild type (human, UniProt P49917 1-240)
T3 sequence (looked up): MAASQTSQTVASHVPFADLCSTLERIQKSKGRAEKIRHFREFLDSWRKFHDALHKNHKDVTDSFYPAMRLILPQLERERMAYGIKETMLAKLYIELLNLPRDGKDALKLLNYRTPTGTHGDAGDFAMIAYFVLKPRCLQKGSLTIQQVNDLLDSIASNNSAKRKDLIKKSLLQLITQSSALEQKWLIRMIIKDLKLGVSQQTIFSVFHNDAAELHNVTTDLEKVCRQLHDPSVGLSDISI


Legend:
LigIV-DBD D18H = target: T1, LigIV-DBD D18H; experiment: ITC
LigIV-DBD V14A = target: T2, LigIV-DBD V14A; experiment: ITC
[1] = target: T3, DNA ligase IV DNA binding domain …; experiment: ITC
[2] = target: T3, DNA ligase IV DNA binding domain …; experiment: fluorescence polarisation

Binder | Kd (LigIV-DBD D18H) [µM] | Kd (LigIV-DBD V14A) [µM] | Kd [1] [µM] | stoichiometry N [1] | binding result [2]
DVPQWEVFFKR [cArt-Pep, peptide derived from the Artemis C-terminal region (485-DVPQWEVFFKR-495)] | 9.1 | 13.6 | 4.8 | 1 ± 0.1 | –
DVPQWEVFFKR (also: 6-FAM label, position not given here) [6-FAM (6-carboxyfluorescein) labeled cArt-Pep] | – | – | – | – | binds
